Reference: publication PMC9122904, “Insights into the client protein release mechanism of the ATP-independent chaperone Spy” (Nature Communications, 2022)
Positions count from the first letter of the chain named. Names may count otherwise.

Legend:
Assay in all cases: BLI; Octet RED96; client biotinylated and loaded on streptavidin sensors; Spy or Spy variant in solution at 0.25, 0.5, 1, 1.5 and 2 μM; 40 mM HEPES, 150 mM NaCl, pH 7.5; Kd calculated as koff/kon
Conditions in all cases: both partners purified
Spy D26K = target: T1, Spy D26K (UniProt P77754 24-161, D26K)
T1 construct: source: E. coli BL21 (DE3), purified (Ni-NTA, cation exchange, SEC); not shown: His6, N-terminal, cleaved; SUMO, N-terminal, cleaved
T1 sequence (looked up): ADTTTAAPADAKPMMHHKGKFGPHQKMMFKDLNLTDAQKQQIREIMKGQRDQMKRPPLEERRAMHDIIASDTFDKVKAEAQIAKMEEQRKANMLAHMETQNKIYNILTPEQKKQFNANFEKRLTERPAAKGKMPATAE

Spy D26E = target: T2, Spy D26E (UniProt P77754 24-161, D26E)
T2 construct: source: E. coli BL21 (DE3), purified (Ni-NTA, cation exchange, SEC); not shown: His6, N-terminal, cleaved; SUMO, N-terminal, cleaved
T2 sequence (looked up): T1 sequence (looked up) with K26E

Spy_(24-124) = target: T3, Spy_(24-124) (UniProt P77754 47-147)
T3 construct: source: E. coli BL21 (DE3), purified (Ni-NTA, cation exchange, SEC); not shown: His6, N-terminal, cleaved; SUMO, N-terminal, cleaved
T3 sequence (looked up): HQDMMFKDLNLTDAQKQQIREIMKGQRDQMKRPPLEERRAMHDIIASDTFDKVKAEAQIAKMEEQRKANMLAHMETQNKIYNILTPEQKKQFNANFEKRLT
In short: (§1)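 Biolayer interferometry used an Octet RED96: client proteins biotinylated with EZ-link NHS-biotin (1:1 molar ratio) were loaded on streptavidin sensors, dipped into 40 mM HEPES, 150 mM NaCl, pH 7.5 containing Spy protein at 0.25, 0.5, 1, 1.5 and 2 μM, then moved to Spy-free buffer. Wavelength-shift association and dissociation curves were fitted in SigmaPlot 12.0, giving observed association rate and koff. kon came from observed rate versus Spy concentration; Kd was koff/kon.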

Spy_(21-127) = target: T4, Spy_(21-127) (UniProt P77754 44-150)
T4 construct: Spy chaperone, residues 21-127; source: E. coli BL21 (DE3), purified (Ni-NTA, cation exchange, SEC); not shown: His6, N-terminal, cleaved; SUMO, N-terminal, cleaved
T4 sequence (looked up): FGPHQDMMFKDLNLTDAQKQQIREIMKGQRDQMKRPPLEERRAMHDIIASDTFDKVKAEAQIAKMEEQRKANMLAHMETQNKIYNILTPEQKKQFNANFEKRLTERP
In short: as §1

Spy_(29-138) = target: T5, Spy_(29-138) (UniProt P77754 52-161)
T5 construct: source: E. coli BL21 (DE3), purified (Ni-NTA, cation exchange, SEC); not shown: His6, N-terminal, cleaved; SUMO, N-terminal, cleaved
T5 sequence (looked up): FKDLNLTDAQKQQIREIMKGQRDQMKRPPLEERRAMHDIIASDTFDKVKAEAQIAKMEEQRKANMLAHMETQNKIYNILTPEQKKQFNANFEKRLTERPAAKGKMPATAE
In short: as §1

Spy_(29-124) = target: T6, Spy_(29-124) (UniProt P77754 52-147)
T6 construct: also called termini-free Spy; source: E. coli BL21 (DE3), purified (Ni-NTA, cation exchange, SEC); not shown: His6, N-terminal, cleaved; SUMO, N-terminal, cleaved
T6 sequence (looked up): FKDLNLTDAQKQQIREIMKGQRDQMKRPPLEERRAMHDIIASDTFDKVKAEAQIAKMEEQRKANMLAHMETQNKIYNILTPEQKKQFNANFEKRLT
In short: as §1

Spy_(29-130) = target: T7, Spy_(29-130) (UniProt P77754 52-153)
T7 construct: Spy chaperone, residues 29-130; source: E. coli BL21 (DE3), purified (Ni-NTA, cation exchange, SEC); not shown: His6, N-terminal, cleaved; SUMO, N-terminal, cleaved
T7 sequence (looked up): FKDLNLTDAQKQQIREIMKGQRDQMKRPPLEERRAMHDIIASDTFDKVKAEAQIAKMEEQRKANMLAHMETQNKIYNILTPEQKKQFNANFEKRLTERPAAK
In short: as §1

Spy_(27-127) = target: T8, Spy_(27-127) (UniProt P77754 50-150)
T8 construct: Spy chaperone, residues 27-127; source: E. coli BL21 (DE3), purified (Ni-NTA, cation exchange, SEC); not shown: His6, N-terminal, cleaved; SUMO, N-terminal, cleaved
T8 sequence (looked up): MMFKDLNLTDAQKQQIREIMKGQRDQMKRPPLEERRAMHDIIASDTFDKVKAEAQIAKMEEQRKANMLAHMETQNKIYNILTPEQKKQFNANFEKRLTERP
In short: as §1

B1: Im7 H40W L53A I54A (natural protein)
chain: MELKNSISDYTEAEFVQLLKEIEKENVAATDDVLDVLLEWFVKITEHPDGTDAAYYPSDNRDDSPEGIVKEIKEWRAANGKPGFKQG
modifications: biotin (EZ-link NHS-biotin, 1:1 molar ratio of biotin to protein)
notes: Im7 (colicin E7 immunity protein) with H40W L53A I54A; Spy was made with an N-terminal His6-SUMO tag that was cleaved; also called Im7AAW; partially folded client; source: purified by a similar procedure to Spy
What does the source list for B1?
kon (Spy D26K): 317000 M⁻¹ s⁻¹; kon (Spy D26E): 306000 M⁻¹ s⁻¹; Kd (Spy_(24-124)): 1.64 µM; Kd (Spy_(21-127)): 1.98 µM; Kd (Spy_(29-138)): 0.313 µM; Kd (Spy_(29-124)): 0.323 µM; Kd (Spy_(29-130)): 0.333 µM; Kd (Spy_(27-127)): 0.3 µM
